Source: patent publication US7183376

Molecular target: soluble CD28-Ig Fc fusion protein (extracellular domain of human CD28 and Fc portion of human IgG1; R&D Systems) (human), P10747
Assay: competitive FACS on transfected 293 cells; competitor sCTLA-4-Ig; score 0/1/2 = CD28/CTLA-4 binding ratio like / greater / significantly greater than WT hB7-1

B1: Round 2 CD28A12-5 (ligand)
chain: ITPKSVTKRVKETVMLSCDYNTSTEELTSLRIYWRKDSKMXLAILPGKVQVWPEYKNRTITDMNDNLRIVILALRLSDSGTYTCVIQKPDLKGAYKLEHLTSVRLMIRADFPVPTINDLGNPSPNIRRLICSTSGGFPRPHLYWLENGEELNATNTTVSQDPGTELYMISSELDFNVTNNHSIVCLIKYGELLVSQIFPWSKPKQEPPIDQLPFWVIIPVSGALVLTAVVLYCLACRHVARWKRTRRNEETVGTERLSPIYLGSAQSSG
modifications: not fully specified; X: residue not identified in the source; ends and bridges not checked; also: glycosylated membrane protein, sites not given here
Binding Score: 1

B2: Round 2 CD28A4-9 (ligand)
chain: ITPKSVTKRVKETVMLSCDYNTSTEKLTSLRIYWQKDSKMVLAILPGKVQVWPEYKNRTITDMNDNPRIVILALRLSDSGTYTCVIQKPVLKGAYKLEHLTSVRLMIRADFPVPTINDLGNPSPNIRRLICSTSGGFPRPHLYWLENGEELNATNTTVSQDPETKLYMISSELDFNVTNNHSIVCLIKYGELSVSQIFPWSKPKQEPPIDQLPFWVIIPVSGALVLTAVVLYCPACRHVARWKRTRRNEETVGTERLSPIYLGSAQSRAEVPSLSX
modifications: not fully specified; X: residue not identified in the source; ends and bridges not checked
Binding Score: 1
